Measurements taken from patent WO2023219147A1.

Biological target: human CCR8 (human)
Experiment: flow cytometry on CD4-gated tumor-infiltrating cells of ovarian cancer; APC-labeled L263G8 2 ug/mL

Substance: anti-human CCR8 antibody L263G8 (BioLegend)
- positive rate of the FoxP3-positive CCR8-positive fraction: 46.6%
